These results are taken from US20240116985A1 (published 2024).

Starred links: 1 amine or outer side, 2 acyl side, 3 side chain; linkers in the order of their positions; H or OH if unused. Positions of bridges follow the written chain, without caps; N, C: chain ends. Non-standard residues stand in square brackets, D forms with d. Primed or numbered codes have the meaning given here. No end group written: not given here. *: point of attachment. PyrS2(3) = (S)-3-amino-1-((pent-4-en-1-yloxy)carbonyl)pyrrolidine-3-carboxylic acid, stapling residue, C=CCCCOC(=O)N1CC[C@@](N[*:1])(C(=O)[*:2])C1; PyrS2″ = (S)-3-amino-1-((pent-4-en-1-yloxy)carbonyl)pyrrolidine-3-carboxylic acid (stapling residue), C=CCCCOC(=O)N1CC[C@@](N[*:1])(C(=O)[*:2])C1; PyrS3″ = (S)-3-amino-1-((hex-5-en-1-yloxy)carbonyl)pyrrolidine-3-carboxylic acid (stapling residue), C=CCCCCOC(=O)N1CC[C@@](N[*:1])(C(=O)[*:2])C1; B5(18) = 2,2-bis(4-pentenyl)glycine (2-amino-2-(pent-4-en-1-yl)hept-6-enoic acid), stitching residue, C=CCCCC(CCCC=C)(N[*:1])C(=O)[*:2]; B5(4) = 2,2-bis(4-pentenyl)glycine = 2-amino-2-(pent-4-en-1-yl)hept-6-enoic acid (stitching residue), C=CCCCC(CCCC=C)(N[*:1])C(=O)[*:2]; B5(21) = 2-amino-2-(pent-4-en-1-yl)hept-6-enoic acid, bis(4-pentenyl)glycine (stitching residue), C=CCCCC(CCCC=C)(N[*:1])C(=O)[*:2]; TfeGA = (S)-2-amino-3-((carboxymethyl)(2,2,2-trifluoroethyl)amino)propanoic acid, O=C([C@H](CN(CC(=O)[*:3])CC(F)(F)F)N[*:1])[*:2]; PyrS4 = (S)-3-amino-1-((hept-6-en-1-yloxy)carbonyl)pyrrolidine-3-carboxylic acid, C=CCCCCCOC(=O)N1CC[C@@](N[*:1])(C(=O)[*:2])C1; PyrS2 = (S)-3-amino-1-((pent-4-en-1-yloxy)carbonyl)pyrrolidine-3-carboxylic acid, C=CCCCOC(=O)N1CC[C@@](N[*:1])(C(=O)[*:2])C1; TriAzDap = Dap whose side chain is a 1H-1,2,3-triazol-1-yl bearing the bracketed 4-substituent; B5(3) = 2,2-bis(4-pentenyl)glycine (stitching residue), C=CCCCC(CCCC=C)(N[*:1])C(=O)[*:2]; B5 = 2-amino-2-(pent-4-en-1-yl)hept-6-enoic acid, C=CCCCC(CCCC=C)(N[*:1])C(=O)[*:2]; B3 = 2-allyl-2-aminopent-4-enoic acid, C=CCC(CC=C)(N[*:1])C(=O)[*:2]; Phe(3-COOH) = N[C@@H](Cc1cccc(C(=O)O)c1)C(=O)O; 2F3MeF = Cc1cccc(C[C@H](N[*:1])C(=O)[*:2])c1F; Phe(2-CF3) = N[C@@H](Cc1ccccc1C(F)(F)F)C(=O)O; Phe(2-CONH2) = NC(=O)c1ccccc1C[C@H](N)C(=O)O; Phe(3,4-F2) = N[C@@H](Cc1ccc(F)c(F)c1)C(=O)O; Phe(2-Cl) = N[C@@H](Cc1ccccc1Cl)C(=O)O; Bta = N[C@@H](Cc1csc2ccccc12)C(=O)O; Lys(iPr) = CC(C)NCCCC[C@H](N)C(=O)O; αAllylPro = C=CC[C@@]1(C(=O)O)CCCN1; tBuAla = CC(C)(C)C[C@H](N)C(=O)O; 3Thi = N[C@@H](Cc1ccsc1)C(=O)O; Cha = N[C@@H](CC1CCCCC1)C(=O)O; PyrS2(4) = not defined here; hSer = N[C@@H](CCO)C(=O)O; MorphCH2 = C1CN(C*)CCO1

Experiment in all cases: cell-based or functional assay
The target of assay [1] is T1, beta-catenin (in DLD1 TCF/LEF luciferase reporter cells) (UniProt P35222 1-781).
T1 sequence (looked up): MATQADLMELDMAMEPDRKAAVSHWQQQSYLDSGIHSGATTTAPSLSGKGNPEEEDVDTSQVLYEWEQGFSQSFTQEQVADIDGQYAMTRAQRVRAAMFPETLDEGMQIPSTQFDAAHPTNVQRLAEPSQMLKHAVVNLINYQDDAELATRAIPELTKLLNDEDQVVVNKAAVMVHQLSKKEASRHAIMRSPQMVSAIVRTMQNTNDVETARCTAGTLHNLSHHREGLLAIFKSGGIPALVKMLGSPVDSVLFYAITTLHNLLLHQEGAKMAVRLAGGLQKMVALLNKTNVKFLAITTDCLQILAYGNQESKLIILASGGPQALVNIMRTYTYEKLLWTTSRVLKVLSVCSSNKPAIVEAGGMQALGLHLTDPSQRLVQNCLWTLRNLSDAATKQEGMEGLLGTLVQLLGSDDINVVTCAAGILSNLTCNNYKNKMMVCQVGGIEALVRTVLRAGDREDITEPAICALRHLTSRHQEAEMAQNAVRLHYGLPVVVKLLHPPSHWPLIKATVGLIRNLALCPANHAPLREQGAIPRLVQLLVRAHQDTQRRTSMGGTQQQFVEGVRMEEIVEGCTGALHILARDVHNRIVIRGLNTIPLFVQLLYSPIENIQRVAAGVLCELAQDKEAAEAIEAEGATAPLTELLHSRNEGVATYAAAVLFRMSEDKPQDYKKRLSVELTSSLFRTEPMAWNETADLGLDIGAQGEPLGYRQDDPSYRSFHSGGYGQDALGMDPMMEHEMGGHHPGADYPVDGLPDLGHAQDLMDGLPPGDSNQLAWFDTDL

The target of assay [2] is T2, Bcat-Halo (UniProt P35222 1-781).
T2 sequence (looked up): T1 sequence (looked up)

The target in assay [3] is T3, B-cat-Halo (beta-catenin HaloTag NanoBRET construct expressed in HEK293 cells) (UniProt P35222 1-781).
T3 sequence (looked up): T1 sequence (looked up)

Assay [4] deals with T4, B-cat-Halo (beta-catenin HaloTag NanoBRET construct expressed in HEK293 cells) (UniProt P35222 1-781).
T4 sequence (looked up): T1 sequence (looked up)
This is another data set of the same source.

Assay [5] has as its target T5, B-cat-Halo (beta-catenin HaloTag fusion expressed in HEK293 cells) (UniProt P35222 1-781).
T5 sequence (looked up): T1 sequence (looked up)

Regarding [αAllylPro]D[tBuAla][B5(4)]D[Phe(3-COOH)]AAFL[PyrS2(4)][2F3MeF][Bta]Q-NH2 (staple 1-4, 4-11; not fully specified; reading uncertain) [I-1335], in assay [1], the “DLD1 4% Abs IC50” value is 0.9 µM.
Turning to Ac-[αAllylPro]D[tBuAla][B5(4)]DDAAFL[PyrS2][3Thi]WQ-NH2 (staple 1-4, 4-11) [I-1431], the “NanoBRET Abs IC50” value in assay [2] amounted to 14.6 µM.
For the molecule [αAllylPro]D[tBuAla][B5(4)]D[Phe(3-COOH)]AAFF[PyrS2″][Phe(2-CF3)][Bta]Q-NH2 (staple 1-4, 4-11) [I-1341], in assay [1], the “DLD1 4% Abs IC50” value is 3.2 µM.
With Ac-[αAllylPro]D[tBuAla][B5(4)]DDAAFL[PyrS2][3Thi]WS-NH2 (staple 1-4, 4-11) [I-1432], the “NanoBRET Abs IC50” value in assay [2] was found to be 14.5 µM.
Ac-[αAllylPro]N[Cha][B5(4)]DQ[Lys(iPr)]AFN[PyrS2″]F[Bta][hSer]-NH2 (staple 1-4, 4-11) [I-2167]: the “NanoBRET Abs IC50” value in assay [3] is over 20 µM.
On to Ac-[αAllylPro]D[tBuAla][B5(18)]D[TfeGA]AAF[TriAzDap](MorphCH2)[PyrS2(3)][3Thi][Bta]Q-NH2 (staple 1-4, 4-11; not fully specified) [I-1867], for which, in assay [4], the “NanoBRET Abs IC50” value turned out to be 16.4 µM.
For the molecule [αAllylPro]D[tBuAla][B5]D[Phe(3-COOH)]AAFL[PyrS2][Phe(2-Cl)][Bta]S-NH2 (staple 1-4, 4-11) [I-1333], the “DLD1 4% Abs IC50” value in assay [1] was determined as 1.2 µM.
Take [αAllylPro]D[tBuAla][B5(4)]D[Phe(3-COOH)]AAFL[PyrS2″][Phe(2-Cl)][Bta]Q-NH2 (staple 1-4, 4-11) [I-1332]: the “DLD1 4% Abs IC50” value in assay [1] amounted to 0.9 µM.
Consider Ac-[αAllylPro]D[tBuAla][B5(18)]D[TfeGA]AAF[TriAzDap](MorphCH2)[PyrS2(3)][3Thi][Bta]Q-NH2 (staple 1-4, 4-11; not fully specified) [I-1865], for which the “NanoBRET Abs IC50” value in assay [4] is over 20 µM.
On to [αAllylPro]D[tBuAla][B5(4)]D[Phe(3-COOH)]AAFF[PyrS2″][Phe(2-Cl)][Bta]Q-NH2 (staple 1-4, 4-11) [I-1338], for which the “DLD1 4% Abs IC50” value in assay [1] amounted to 3.4 µM.
As to Ac-[αAllylPro]D[tBuAla][B3]DDAAFL[PyrS3″][3Thi][Bta]Q-NH2 (staple 1-4, 4-11; also: olefin in each staple reduced to -CH2-CH2-) [I-2161], in assay [3], the “NanoBRET Abs IC50” value is over 20 µM.
With [αAllylPro]D[tBuAla][B5]D[Phe(3-COOH)]AAFL[PyrS2][Phe(2-CF3)][Bta]S-NH2 (staple 1-4, 4-11) [I-1336], the “DLD1 4% Abs IC50” value in assay [1] came to 0.7 µM.
On to Ac-[αAllylPro]D[tBuAla][B3]DDAAFL[PyrS4][3Thi][Bta]Q-NH2 (staple 1-4, 4-11; also: olefin in each staple reduced to -CH2-CH2-) [I-2162], for which the “NanoBRET Abs IC50” value in assay [3] is over 20 µM.
As for Ac-[αAllylPro]N[tBuAla][B5(3)]DDAAFL[PyrS2″][3Thi][Bta]Q-NH2 (staple 1-4, 4-11) [Ac-PL3-Asn-Npg-B5-Asp-Asp-Ala-Ala-Phe-Leu-PyrS2-3Thi-BztA-Gln-NH2], the “NanoBRET Abs IC50” value in assay [5] came out at 23.4 µM.
Regarding Ac-[αAllylPro]D[tBuAla][B5(18)]D[TfeGA]AAF[TriAzDap](SO2MorphCH2)[PyrS2(3)][3Thi][Bta]Q-NH2 (staple 1-4, 4-11; not fully specified) [I-1868], in assay [4], the “NanoBRET Abs IC50” value is 39.6 µM.
As for Ac-[αAllylPro]D[tBuAla][B5(4)]DDAAFL[PyrS2][3Thi][Phe(3,4-F2)]Q-NH2 (staple 1-4, 4-11) [I-1427], the “NanoBRET Abs IC50” value in assay [2] is 30.4 µM.
Ac-[αAllylPro]D[tBuAla][B5(18)]D[TfeGA]AAF[TriAzDap](CH2Ppz)[PyrS2(3)][3Thi][Bta]Q-NH2 (staple 1-4, 4-11; not fully specified) [I-1864]: the “NanoBRET Abs IC50” value in assay [4] was over 20 µM.
Regarding Ac-[αAllylPro]D[tBuAla][B5(4)]DDAAFL[PyrS2][3Thi][Phe(3,4-F2)]S-NH2 (staple 1-4, 4-11) [I-1428], the “NanoBRET Abs IC50” value in assay [2] was 40.2 µM.
Regarding Ac-[αAllylPro]D[tBuAla][B5(18)]D[TfeGA]AAF[TriAzDap](CH2Ppz)[PyrS2(3)][3Thi][Bta]Q-NH2 (staple 1-4, 4-11; not fully specified) [I-1863], the “NanoBRET Abs IC50” value in assay [4] turned out to be 37.4 µM.
For the molecule Ac-[αAllylPro]D[tBuAla][B3]DDAAFL[PyrS4][3Thi][Bta]Q-NH2 (staple 1-4, 4-11; also: later eluting HPLC peak (staple isomer composition)) [I-2159], the “NanoBRET Abs IC50” value in assay [3] is over 20 µM.
On to Ac-[αAllylPro]D[tBuAla][B5(18)]D[TfeGA]AAF[TriAzDap](MorphCH2)[PyrS2(3)][3Thi][Bta]Q-NH2 (staple 1-4, 4-11; not fully specified) [I-1866], for which, in assay [4], the “NanoBRET Abs IC50” value is over 20 µM.
For Ac-[αAllylPro]N[Cha][B5(4)]DQ[Lys(iPr)]AFN[PyrS2″][Phe(2-CONH2)][Bta][hSer]-NH2 (staple 1-4, 4-11) [I-2168], in assay [3], the “NanoBRET Abs IC50” value was over 20 µM.
For Ac-[αAllylPro]DS[B5(21)]DDAAFL[PyrS2″][3Thi][Bta]L-NH2 (staple 1-4, 4-11) [I-1414], the “NanoBRET Abs IC50” value in assay [2] was over 20 µM.
On to Ac-[αAllylPro]D[tBuAla][B3]DDAAFL[PyrS4][3Thi][Bta]Q-NH2 (staple 1-4, 4-11; also: earlier eluting HPLC peak (staple isomer composition)) [I-2158], for which, in assay [3], the “NanoBRET Abs IC50” value was over 20 µM.

B1: I-1418 (peptide)
peptide: Ac-[αAllylPro]DL[B5(4)]DDAAFL[PyrS2″][Phe(2-Cl)][Bta]L-NH2
modifications: staple 1-4, 4-11; also: staple isomer composition of earlier HPLC peak
notes: Stapled peptide; staple isomer composition of the earlier HPLC peak
For B1, the “NanoBRET Abs IC50” value in assay [2] is over 20 µM.
